{"source": "paper PMC5922973", "about": "“Topoisomerase VI senses and exploits both DNA crossings and bends to facilitate strand passage” (eLife, 2018)", "key": {"topo VI H2TH-EEE": {"molecular_target": "T1, topo VI H2TH-EEE (Methanosarcina mazei, UniProt Q8PUB7;Q8PUB8 1-369;1-621, R263E;K268E;K308E)", "T1 sequence 1": "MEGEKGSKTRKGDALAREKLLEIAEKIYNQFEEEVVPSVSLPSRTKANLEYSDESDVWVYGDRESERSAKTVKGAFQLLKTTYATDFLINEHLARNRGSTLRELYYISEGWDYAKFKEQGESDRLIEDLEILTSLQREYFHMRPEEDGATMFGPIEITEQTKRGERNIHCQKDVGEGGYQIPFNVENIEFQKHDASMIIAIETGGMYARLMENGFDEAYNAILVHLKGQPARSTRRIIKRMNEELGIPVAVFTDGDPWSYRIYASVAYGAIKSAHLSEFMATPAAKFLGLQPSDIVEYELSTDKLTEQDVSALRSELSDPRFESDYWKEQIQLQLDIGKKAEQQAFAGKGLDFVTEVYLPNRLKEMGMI", "T1 sequence 2": "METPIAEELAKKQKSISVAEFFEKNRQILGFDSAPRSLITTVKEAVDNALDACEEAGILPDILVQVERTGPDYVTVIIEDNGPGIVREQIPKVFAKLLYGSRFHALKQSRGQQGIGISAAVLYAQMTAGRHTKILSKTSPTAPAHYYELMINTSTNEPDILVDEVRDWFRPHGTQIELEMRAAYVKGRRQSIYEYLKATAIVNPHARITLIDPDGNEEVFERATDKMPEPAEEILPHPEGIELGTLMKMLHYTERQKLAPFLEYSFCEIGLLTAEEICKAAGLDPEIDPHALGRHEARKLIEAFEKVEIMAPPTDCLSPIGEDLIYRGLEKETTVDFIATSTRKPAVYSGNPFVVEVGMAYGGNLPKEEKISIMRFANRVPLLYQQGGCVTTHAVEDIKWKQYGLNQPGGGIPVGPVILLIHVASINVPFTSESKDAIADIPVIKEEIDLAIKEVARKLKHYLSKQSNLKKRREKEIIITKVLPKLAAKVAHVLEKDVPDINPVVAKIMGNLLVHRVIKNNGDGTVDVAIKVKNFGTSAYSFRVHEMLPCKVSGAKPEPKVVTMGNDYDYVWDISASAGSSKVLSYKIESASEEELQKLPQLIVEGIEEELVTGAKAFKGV", "experiment": "fluorescence anisotropy; Hill h 1.3; FA: 20 nM probe, 50 mM K-glutamate, 20 mM HEPES-KOH pH 7.5, 10 mM MgCl2, 5% glycerol, 1 mM TCEP, 0.1 mg/mL BSA; incubated on ice, read at ambient temperature; competition with 100 nM enzyme", "details": "protein: recombinant; tags: N-terminal His6-TEV on Top6B, removed; chain copies: 2;2; label: 5'-FAM strand 1; blunt"}, "topo VI KGRR-EEE [1]": {"molecular_target": "T2, topo VI KGRR-EEE (Methanosarcina mazei, UniProt Q8PUB7;Q8PUB8 1-369;1-621, K186E;R188E;R189E)", "T2 sequence 1": "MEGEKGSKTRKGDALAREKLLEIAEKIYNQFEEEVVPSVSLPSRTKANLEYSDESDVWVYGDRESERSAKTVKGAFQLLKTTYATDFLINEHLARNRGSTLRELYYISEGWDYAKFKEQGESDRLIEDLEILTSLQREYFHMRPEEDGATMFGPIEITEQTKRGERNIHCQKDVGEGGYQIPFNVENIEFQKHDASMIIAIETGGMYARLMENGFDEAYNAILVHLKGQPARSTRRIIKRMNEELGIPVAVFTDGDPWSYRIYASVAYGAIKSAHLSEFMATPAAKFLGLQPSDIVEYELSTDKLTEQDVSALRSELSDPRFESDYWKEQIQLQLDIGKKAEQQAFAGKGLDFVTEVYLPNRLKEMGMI", "T2 sequence 2": "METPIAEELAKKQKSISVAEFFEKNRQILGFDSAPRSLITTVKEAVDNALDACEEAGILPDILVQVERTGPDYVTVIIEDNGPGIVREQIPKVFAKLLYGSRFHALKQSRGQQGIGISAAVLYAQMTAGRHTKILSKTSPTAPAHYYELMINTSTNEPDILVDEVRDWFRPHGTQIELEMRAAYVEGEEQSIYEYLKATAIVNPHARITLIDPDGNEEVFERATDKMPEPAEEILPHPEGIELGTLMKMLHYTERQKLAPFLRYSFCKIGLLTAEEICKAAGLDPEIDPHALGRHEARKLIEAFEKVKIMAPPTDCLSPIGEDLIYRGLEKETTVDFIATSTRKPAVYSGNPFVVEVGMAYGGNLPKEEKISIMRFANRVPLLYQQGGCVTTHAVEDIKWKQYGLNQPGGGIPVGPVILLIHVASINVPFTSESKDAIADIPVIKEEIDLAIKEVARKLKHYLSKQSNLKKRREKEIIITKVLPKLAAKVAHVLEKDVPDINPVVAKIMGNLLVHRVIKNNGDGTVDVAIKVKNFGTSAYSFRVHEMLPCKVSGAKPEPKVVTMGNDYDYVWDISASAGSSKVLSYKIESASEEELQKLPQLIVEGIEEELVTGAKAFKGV", "experiment": "fluorescence anisotropy; 10 mM Mg2+; ambiguous, poorly defined dFAmax; FA: 20 nM probe, 50 mM K-glutamate, 20 mM HEPES-KOH pH 7.5, 10 mM MgCl2, 5% glycerol, 1 mM TCEP, 0.1 mg/mL BSA; incubated on ice, read at ambient temperature; competition with 100 nM enzyme", "details": "protein: recombinant; tags: N-terminal His6-TEV on Top6B, removed; chain copies: 2;2; label: 5'-FAM on S1; four-way Holliday junction, stacked-X, two GAAA-capped arms"}, "topo VI KGRR-EEE [2]": {"molecular_target": "T2, topo VI KGRR-EEE", "experiment": "fluorescence anisotropy; FA: 20 nM probe, 50 mM K-glutamate, 20 mM HEPES-KOH pH 7.5, 10 mM MgCl2, 5% glycerol, 1 mM TCEP, 0.1 mg/mL BSA; incubated on ice, read at ambient temperature; competition with 100 nM enzyme", "details": "protein: recombinant; tags: N-terminal His6-TEV on Top6B, removed; chain copies: 2;2; label: 5'-FAM strand 1; blunt"}}, "data": [{"binder": "30 bp duplex (dsDNA) DNA 1: CAAAAAGGAAGAGTATGAGTATTCAACATC DNA 2: GATGTTGAATACTCATACTCTTCCTTTTTG", "values": [{"measurement": "Kd", "setting": "topo VI H2TH-EEE", "value": "94 ± 5", "unit": "nM"}]}, {"binder": "16 x 20 bp stacked junction (structured_DNA) DNA 1: CGAATACTCAGCTCAACCGAAAGGTTGAGCCTTCGCTCGAAAGAGCGAAGTACTCTTCCG DNA 2: CGGAAGAGTATGAGTATTCG", "values": [{"measurement": "Kd", "setting": "topo VI KGRR-EEE [1]", "value": "~1460", "unit": "nM"}]}, {"binder": "60 bp duplex (dsDNA) DNA 1: CGCTTCAATAATATTGAAAAAGGAAGAGTATGAGTATTCAACATTTCCGTGTCGCCCTTC DNA 2: GAAGGGCGACACGGAAATGTTGAATACTCATACTCTTCCTTTTTCAATATTATTGAAGCG", "values": [{"measurement": "Kd", "setting": "topo VI KGRR-EEE [2]", "value": "119 ± 3", "unit": "nM"}]}]}
